Laboratory results published in the supplement of paper PMC9170038.

System: K4 kissing-loop RNA reporter
Experiment: apparent KD of K4 kissing-loop reporter; higher = weaker reporter binding
Conditions: Eterna round: R107
Experimental: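 RNA-MaP round R107: designed RNA switches with theophylline, tryptophan, arginine or FMN aptamers are transcribed on-chip within common flanks. They are titrated with a labelled K4 kissing-loop RNA reporter in RNA-MaP buffer (100 mM Tris pH 7.5, 80 mM KCl, 4 mM MgCl2), without ligand or with the indicated ligand. Median apparent KD per design.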

[1] = input ligand: theophylline 20 uM
[2] = input ligand: tryptophan 2.4 mM
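Note: bound reporter read as fluorescence of individual clusters on recovered sequencing chips by microscopy, with normalized cluster intensities fitted with a binding model.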

Row | Sequence | apparent KD of K4 kissing-loop reporter (input ligand: FMN 200 uM) [nM] | apparent KD of K4 kissing-loop reporter (input ligand: arginine 13.2 mM) [nM] | apparent KD of K4 kissing-loop reporter (input ligand: none) [nM] | apparent KD of K4 kissing-loop reporter [1] [nM] | apparent KD of K4 kissing-loop reporter [2] [nM]
1 | UAUGGUCCAUCAAGAGUAGUGAUGUUAUAACGAGGACCGGUACGGCCGCCACUCGAGGCCGUAAUACUCGAUCGGAUGCUGAGUG [theeternabot_exclusion_KL_Trp_A_28] | 815 | 819 | 1180 | 794 | 816
2 | UAUGUACGCGGGUAACGGUACAUCGAGGAAGGAGCGUGCGCAGGCACAGGUAGGUCGCCUCAGCGCACGAGUGAUGUUCGUGGGC [Rere] | 221 | 243 | 271 | 298 | 280
3 | UAUUAAUAAUUAUUCUAGUGAUGUUAGAUACGAGGACCGGUACGGCCGCCACUCGCUUAUUGGUUUAUAAAUUUUAUAUUAUUUA [JR_SSTryptoA_Sub017] | 185 | 207 | 186 | 208 | 164
4 | UAUUAAUAUUUUUCAGUGAUGUUAAUUGAUACCAGCCCGAAACCGGGCCCUUGGCAGCGAGUGAUGUUGGUUGUCAGCAUAAAUA [KL-XTheo-A13] | 860 | 596 | 836 | 676 | 667
5 | UAUUUAAUUUUUAAUUUUUAAAUUGCUGAUACCAGAGCCAAUUGGCUCCCUUGGCAGCGGAUCGAGUGAUGUUCGUAUAAUUUAA [AK1 SS Theophylline A] | 30.5 | 66.4 | 35 | 62.2 | 33.6
6 | UAUUUGAUGUCAGGAUAUCGUAUACGAGUGAUGUUCGUAUUUCUACUAUAGAUUAUUUAAAUUUUUCGAGAAGGGACAACAUUUA [#04 K4 FMN B Same State] | 151 | 93.3 | 115 | 140 | 122
7 | UCACGUGCCAGUGAUGUUGGCGUACGUGAUACCAGAACAAUAAAGUUCCCUUGGCAGCACAAAUAUGCCAAGUUAGAUGUAUGAU [Exclusion Theophylline A GF 3] | 121 | 118 | 123 | 119 | 113
8 | UCAUAUACCAGAAGGAGCGUGCAGGACGAAUUAAUCAUCGACCUUAGUGAUGUUAAGGACGCACAGGUAGGUCGCUGGUAUAUGA [Arg B SS t4] | 444 | 431 | 479 | 484 | 439
9 | UCCAAUAUUUAUUGAUCCGCCUCGCAUCAACGAGGACCGGUACGGCCGCCACUCGUGCCUAGGUAGUGAUGUUACUUAGUUUACU [theeternabot_sameState_KL_Trp_A_32] | 93.2 | 162 | 114 | 188 | 196
10 | UCCUAGGCUCGAAAGAGCCUAGGAUUAUCUCAGGAUAUCCGGAAACGGAGAAGGGAGAAACUAGUGAUGUUAGGGAUUCCCUAUU | 574 | 184 | 213 | 259 | 137
11 | UCCUAGGCUCGAAAGAGCCUAGGUAAGACUCAGGAUAUCUGGAAACAGAGAAGGGAGCUACUAGUGAUGUUAGGAAUUCCCAUUU | 116 | 94.7 | 89 | 76.2 | 85.1
12 | UCCUCGAAUCGACCUCGAAAGAGGAUGGAUACCAGUCUUGAUAAAGACCCUUGGCAGCCAGUGAUGUUGGAACGAGGUAAAUAAA [#SwitchBubble 19 #K4Late] | 531 | 365 | 571 | 535 | 359
13 | UCCUGCAAUCGCCCACGAAAGUGGAUUGAUACCAGAGUCGAAAGACUCCCUUGGCAGCGAGUGAUGUUCGAAGCAGGUAAAUAAA | 326 | 503 | 562 | 540 | 459
14 | UCCUUAUCGCGGUCAUAAAGCCUAUAAAACAAGGAUAUCUCAUCAGAGAGAAGGUGUGAGUGAUGUUCAAAGGCCACCACGGGUU [theeternabot_sameState_KL_FMN_A_47] | 654 | 724 | 840 | 453 | 818
15 | UCGAAGGAUGGAAGGAGCGCUCGUCAGCCCUGCGAGUGAUGUUCGUGGGUAAAUAGUCGCGAGCAGGUAGGUCGCCAUCUUGAGC [Ritera] | 128 | 111 | 130 | 111 | 116
16 | UCGACAGUGAACGAUACCAGCGUCACGUGGCUGGUGGUCACAUGAGUGAUGUUCAUGUAACGCCCUUGGCAGCGUGCACGUAUCA [KL-XTheo-B8] | 141 | 127 | 133 | 125 | 129
17 | UCGAUGGCCAGCGAUACCAGCCCAGUGAUGUUGGGCACAUGGUUGCGGGAAAUCCCAUUGGGCCCUUGGCAGCGCUUGCAUGGGU [Dizaisa] | 148 | 121 | 140 | 120 | 125

Row | Sequence | apparent KD of K4 kissing-loop reporter (input ligand: FMN 200 uM) [nM] | apparent KD of K4 kissing-loop reporter (input ligand: arginine 13.2 mM) [nM] | apparent KD of K4 kissing-loop reporter (input ligand: none) [nM] | apparent KD of K4 kissing-loop reporter [1] [nM] | apparent KD of K4 kissing-loop reporter [2] [nM]
18 | UCGCCAAAGUCGGCCGCCACUCCGGGCCCUAUAAAUGGGCGCAGUGAUGUUGCGGCUAGGCCUCUGAGGACCGGGACUUUGUAGA [Esenusza] | 116 | 0.509 | 152 | 233 | 152
19 | UCGGCAAAGUCGGCCGCCACUCCGGGCCCUAUAAAUGGGCGCAGUGAUGUUGCGGCUAGGCCUCUGAGGACCGGGACUUUGUAGA [Gebive] | 114 | 91.7 | 112 | 146 | 204
20 | UCGGCAGUGAACGAUACCAGCGUCACGUGGCUGGUGGUCACAUGAGUGAUGUUCAUGUAACGCCCUUGGCAGCGUGCGCGUACCG [KL-XTheo-B11] | 113 | 98.1 | 107 | 94.7 | 103
21 | UCGGGCGGCUGAAGGAGCGGGCGGGCCCGAGUGAUGUUCGGGUGGGCCGUGAGGCCCGGAGCCCAGGUAGGUCGCGGUUCCGCCC [#2 Same State - Arginine B Attempt #23 (HarryS)] | 200 | 153 | 188 | 168 | 175
22 | UCGUCUGUGUGAGGAUAUCCAAGCGAGCUGCGUAAAGGCGCGGCGUUUGGAGUGAUGUUCCAGGCAGGAGAAGGCGCACGGGCUU [Maleisar] | 231 | 296 | 245 | 470 | 292
23 | UCUCUUCUCAGUGAUGUUGAGUAAUCGGAAGGAGCGCGUGAAAACGCAGGUAGGUCGCCGAUUUGUGAAGUAUCUUCGCAAGAGA [Arginine A K4 26] | 352 | 341 | 412 | 441 | 300
24 | UCUGAAGGUGGAGGAUAUUGAUUGAAUCUUGGUCAGGAGUGAUGUUCCGGGAAGCCUUGGAUUCAUCGAGAAGGCCAAGGAUAGU [#10 K4 FMN B Same State] | 144 | 259 | 243 | 306 | 225
25 | UCUGCAAAGUCGGCCGCCACUCCGGGCCCUAUAAAUGGGCGCAGUGAUGUUGCGGCUAGGCCUCUGAGGACCGGGACUUCGUAGA [Somale] | 62.8 | 52.1 | 54.7 | 166 | 107
26 | UCUGGAGCGUAUGAUACCAGCAGAGAGAGACAGGAAGUAUAGUGAUGUUAUAUGAGAGAAUGCCCUUGGCAGCGUGUGCAGUGGC [#26 K4 Theophylline B Same State] | 55.9 | 56.5 | 66.8 | 53.4 | 48
27 | UCUGGUAUAUCUGAUACCAGAGUAUAGUAUCAAUUGCAUAUCCGCAGUGAUGUUGCGGAACUCCCUUGGCAGCAGAUCUAUCUCU [Same State Theophylline B GF 26] | 71.6 | 90.6 | 81.8 | 86.8 | 70
28 | UCUUAACUAAAAUAAUGGGAUACCAGUGAUACCAGCCAUAUGCAGGGCCCUUGGCAGCACCCUUGGCAGCCUCGAGUGAUGUUCG [KL-SSTheo-A7 #DoubleAptamer] | 283 | 292 | 315 | 247 | 230
29 | UGAACUUUUGCUAGGAACCGUCUAGCUCUUUAGGAUAUCUGGAAACAGAGAAGGAAAGACCUACAGAGUGAUGUUCUGCGUUCAU | 383 | 268 | 316 | 316 | 263
30 | UGACAUUGCUCAGAUACCAGACAAGAGGAUCACCCUUGUGCCAAAACGUACUAAAUAAAUGUCCCUUGGCAGCUGAGCAAUGUCU [TheoBX 13] | 82.5 | 42.1 | 45.9 | 77.4 | 58.6
31 | UGACAUUGCUCAGAUACCAGACUUGAGGAACACCCAAGUGCCAAAUACGUACAAAUAAAAGUCCCUUGGCAGCUGAGCAAUGUCU [TheoBX 12] | 58.3 | 23.5 | 48.5 | 148 | 38.5
32 | UGACUACAUCCUAGUGAUGUUUAGGAUAUGUAGGAUAUGCUGAUAAGCAGAAGGACAGAAGGAAGUGAUGUUCUUAAAGUAGUCU [FmnAX 29 #DoubleAptamer #Double K4 #SwitchBubble #StaticStem] | 644 | 783 | 1050 | 760 | 802
33 | UGACUGGACUGAAGGAGCGAGCGAGACAAAGUCUCGGAAAUUCAGUGAUGUUGAUAUAUAACUCAGGUAGGUCGCAGUCUAGUCU [ArgBS 6 #SwitchBubble #StaticStem] | 350 | 411 | 459 | 363 | 335
